Laboratory results: patent US20230190701A1, “Compounds for Treating Tauopathies and Restless Leg Syndrome and Methods of Using and Screening for Same” (The United States Government as Represented, priority 2020, published 2023)

Key:
Type in all cases: biochemical
[1] = biological target: T1, PTPRD D1 phosphatase (SEQ ID NO: 1) (Homo sapiens, UniProt P23468); assay: Orthophosphate release assay (malachite green/molybdate) with phosphopeptide substrates; details: for PTPRD's activity in dephosphorylating CDK5 phosphopeptide (positive allosteric modulation): pY15 CDK5 phosphopeptide, flavonoid 10^−4 M (FIG. 7); for PTPRD's activity in dephosphorylating CDK5 phosphopeptide (positive allosteric modulation) / PTPRD's activity in dephosphorylating GSK3 phosphopeptide (positive allosteric modulation): vs vehicle; for PTPRD's activity in dephosphorylating GSK3 phosphopeptide (positive allosteric modulation): pYGSK3 phosphopeptide, flavonoid 10^−4 M (FIG. 8); for normalized rates of liberation of orthophosphate from pY15CDK5 alanine substitution mutants vs wildtype: FIG. 5, Glu-substitution mutants (1, 4, 6) reductions, Lys-substitution mutants (2, 7) increases
T1 construct: His6 (N); made in house; host or cells: E. coli (vector optimized for E. coli codon use)
T1 sequence (P23468 with tags, fused parts or gaps): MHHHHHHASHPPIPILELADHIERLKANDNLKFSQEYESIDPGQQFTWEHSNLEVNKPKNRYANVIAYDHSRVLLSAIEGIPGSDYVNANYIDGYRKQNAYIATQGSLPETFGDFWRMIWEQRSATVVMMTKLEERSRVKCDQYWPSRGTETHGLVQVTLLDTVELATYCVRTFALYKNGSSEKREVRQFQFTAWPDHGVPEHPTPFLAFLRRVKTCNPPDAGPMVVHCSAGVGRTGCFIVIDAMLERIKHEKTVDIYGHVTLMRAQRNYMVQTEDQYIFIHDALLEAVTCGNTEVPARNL
Text: The following examples utilized phosphatase protein produced from a His-tagged D1 phosphatase domain synthesized expression vector optimized for E. coli codon use (SEQ ID NO: 1). This protein was purified to >95% purity and was active in hydrolyzing pNPP substrate (FIG. 1). Human wildtype and mutant phospho- and dephospho-GSK3β/GSK3α and CDK5 peptides were synthesized (Pierce/ThermoFisher, SEQ ID NOs: 2-12) and control END(pY)INASL peptide (Promega, SEQ ID NO: 13) was purchased. Flavonoids were purchased from Thermo-Fisher, Aldrich, Cayman Chemical and AK Scientific. Purities were >95%.
Orthophosphate release assays (Promega V2471) used Malachite green and molybdate with spectrophotometric detection of liberated free orthophosphate from test phosphopeptides compared to control and mutant peptides with assessments for the times indicated. Reactions were carried out in a half-area 96-well plate, with three wells dedicated for each time point. To each experimental well, we added a mixture of 18 μL of ultrapure water, 25 μL of running buffer, 1 μL of a 10 mM DMSO solution of the desired peptide, and 1 μL of DMSO containing a desired concentration of flavonoid, or 1 μL DMSO for control experiments. The supplied molybdate dye mixture (50 μL) was added at t=0, followed by 5 μL of a 1:100 dilution of enzyme in the aforementioned dilution buffer. Other wells were initiated via the addition of 5 μL of the diluted enzyme mixture@t=0 and terminated at the desired timepoints by addition of 50 μL of the dye solution. Wells were read@605 nm.

human PTPRD phosphatase = biological target: T2, human PTPRD phosphatase (Homo sapiens, UniProt P23468); assay: pNPP dephosphorylation to p-nitrophenolate (405 nm); details: FIG. 4; peptide 4×10^−4 M, pNPP 1.8×10^−5M
T2 construct: His6 (N); made in house; host or cells: E. coli (vector optimized for E. coli codon use)
T2 sequence (P23468 with tags, fused parts or gaps): T1 sequence (P23468 with tags, fused parts or gaps)
Procedure: pNPP dephosphorylation to p-nitrophenolate: Triplicate assays were used for human PTPRD phosphatase, pNPP substrate and spectrophotometric 405 nm detection of the dephosphorylation product of these enzyme's activities using a Spectromax plate reader. Controls used 5×10^−5M 7-BIA with 18 min incubations as described. See G. R. Uhl et al., “Cocaine reward is reduced by decreased expression of receptor-type protein tyrosine phosphatase D (PTPRD) and by a novel PTPRD antagonist.” Proc Natl Acad Sci USA 115, 11597-11602 (2018). For assays determining the effect of flavonoids on pNPP hydrolysis, a 96 well half-area plate was prepared by first filling each well to be tested with 18 μL of 50 μM pNPP and 25 μL of running buffer (43.4 μM HEPES (pH 7.4), 2.2 μM dithiothreitol, 0.44% acetylated bovine serum albumin, 22.2 μM NaCl, 4.4 μM EDTA), and 2 μL of DMSO containing the desired concentration of flavonoid and/or peptide. PTPRD1 was diluted 1:50 in a dilution buffer (22.9 μM pH 7.4 HEPES, 1% acetylated bovine serum albumin, 4.6 μM dithiothreitol). At the zero time point, 5 uL of this solution was added to each well, and the optical density was measured in 36 second intervals at 405 nm. Results were plotted and the slopes of the linear region were fit. All experiments were performed three times with three wells dedicated to each experimental condition in each experiment.

[2] = biological target: T1, PTPRD D1 phosphatase (SEQ ID NO: 1); assay: Orthophosphate release assay (malachite green/molybdate) with phosphopeptide substrates; details: peptide as substrate; FIG. 1

PTPRD's activity in dephosphorylating CDK5 phosphopeptide (positive allosteric modulation) [1] | PTPRD's activity in dephosphorylating GSK3 phosphopeptide (positive allosteric modulation) [1] | competition for PTPRD phosphatase's hydrolysis of pNPP (human PTPRD phosphatase) | Compound | normalized rates of liberation of orthophosphate from pY15CDK5 alanine substitution mutants vs wildtype [1] | further results
trend-level | significant |  | O=c1c(O)c(-c2ccc(O)cc2O)oc2cc(O)cc(O)c12 [morin] |  | 
trend-level | significant |  | O=c1c(O)c(-c2cc(O)c(O)c(O)c2)oc2cc(O)cc(O)c12 [myricetin] |  | 
 |  | competes | QLVRGEPNVS-pY-ICSRYYRAPE [GSK3 phosphopeptide] |  | liberation of orthophosphate from phosphopeptide by PTPRD's phosphatase [2]: substantial liberation of orthophosphate
trend-level | significant |  | O=c1c(O)c(-c2ccc(O)c(O)c2)oc2cc(O)ccc12 [fisetin] |  | 
 |  | inactive | QLVRGEPNVSYICSRYYRAPE (QLVRGEPNVSSYICSRYYRAPE) [dephospho GSK3β, GSK3α peptide, GSK3β/α wildtype dephosphopeptide] |  | 
 |  | inactive | YEKLEKIGEGTYGTVFKAKN [dephospho CDK5 peptide, CDK5 wildtype dephosphopeptide] |  | 

The next lines start with the compound.

Compound | PTPRD's activity in dephosphorylating CDK5 phosphopeptide (positive allosteric modulation) [1] | PTPRD's activity in dephosphorylating GSK3 phosphopeptide (positive allosteric modulation) [1] | competition for PTPRD phosphatase's hydrolysis of pNPP (human PTPRD phosphatase) | normalized rates of liberation of orthophosphate from pY15CDK5 alanine substitution mutants vs wildtype [1] | further results
YEKLEKIGAGT-pY-GTVFKAKN [mutant 1] |  |  |  | trends | 
YAKLAKIGAGT-pY-GTVFKAKN [mutant 6] |  |  |  | nominally-significant (6) reductions in activity | 
YEKLEKIGEGT-pY-GTVFKAKN [CDK5 phosphopeptide] |  |  | competes |  | liberation of orthophosphate from phosphopeptide by PTPRD's phosphatase [2]: rates similar to those found for the generic positive control substrate
O=c1c(O)c(-c2ccc(O)c(O)c2)oc2cc(O)cc(O)c12 [quercetin] | increased | increased |  |  | stimulation of orthophosphate liberation from phosphopeptides by PTPRD phosphatase, dose-response ([1]; FIG. 9, pYGSK3 and pYCDK5 phosphopeptides): active at micromolar concentrations
YEALEAIGEGT-pY-GTVFKAKN [mutant 7] |  |  |  | nominally-significant increases in activity | 
YEKLEAIGEGT-pY-GTVFKAKN [mutant 2] |  |  |  | nominally-significant increases in activity | 
YEALEKIGEGT-pY-GTVFKAKN [mutant 4] |  |  |  | trends | 
